Numbering of substitutions follows the chain as printed.
What was measured:
hFAST-1 (Homo sapiens) = target: T1, hFAST-1 (Homo sapiens) (UniProt O75593); experiment: cell_activity; details: MvLu1 cells; TGF-beta dependent luciferase activation
T1 sequence: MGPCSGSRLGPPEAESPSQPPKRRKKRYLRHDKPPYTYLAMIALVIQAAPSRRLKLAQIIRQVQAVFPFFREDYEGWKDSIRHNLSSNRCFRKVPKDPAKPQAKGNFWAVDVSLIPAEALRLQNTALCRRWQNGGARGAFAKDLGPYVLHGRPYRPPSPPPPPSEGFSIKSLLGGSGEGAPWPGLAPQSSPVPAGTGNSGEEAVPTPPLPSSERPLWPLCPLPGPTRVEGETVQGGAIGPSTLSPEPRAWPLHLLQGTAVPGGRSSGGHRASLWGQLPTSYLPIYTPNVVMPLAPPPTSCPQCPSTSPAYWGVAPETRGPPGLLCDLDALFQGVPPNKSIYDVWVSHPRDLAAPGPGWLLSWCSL

Smad2 MH1 domain (S-N) = Smad2 MH1 domain (S-N) (Homo sapiens, UniProt Q15796 Q15796:1-182); experiment: EMSA; specificity control; details: tags: GST fusion; label: 32P
Chain of Smad2 MH1 domain (S-N) (Q15796 1-182, one chain of several): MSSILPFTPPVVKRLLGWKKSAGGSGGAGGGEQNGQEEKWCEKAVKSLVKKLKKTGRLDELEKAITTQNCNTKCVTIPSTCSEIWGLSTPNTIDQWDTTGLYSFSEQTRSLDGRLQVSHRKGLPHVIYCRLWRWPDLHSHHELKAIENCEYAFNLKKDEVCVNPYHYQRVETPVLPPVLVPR
Protocol: (§1) Derivation of clones and EMSA were performed as described in Example 7. Mock selected clones were used for comparison (“C” lanes). The positions of free probe and hFAST-1 bound probe (“shift”) are indicated. FIG. 4B provides a sequence summary of clones that bound to hFAST-1. The sequences of the relevant segment of 17 hFAST-1-binding clones were determined and the fractions of clones containing the nucleotides at the indicated positions relative to the consensus are shown. […] Wild-type (FBE) or mutant (FBE*) oligonucleotides were incubated with 0.5-2.0 μg of GST fusion proteins containing full-length hFAST-1 (FAST-FL) or only its forkhead domain (FAST-FH). GST fusion proteins containing the MH1 or MH2 domains of Smad2 (S-N and S-C, respectively; Zawel et al., 1998) were used as controls. The FBE* oligonucleotide contained the sequence TCTGTATC in place of the consensus TGTGTATT but was otherwise identical to FBE. […] EMSA was performed with (+) or without (−) 1 μg of GST fusion protein containing full length FAST-1 (“FAST-FL”). The sequence of the 50 bp ARE oligonucleotide differed by only one bp from ARE*.
(§2) Sixty bp probes corresponding to single clones were generated for EMSA by colony PCR using the following ³²P-labeled primers: 5′-[…]-3′ (SEQ ID NO:14) and 5′-[…]-3′ (SEQ ID NO:15). […]

Smad2 MH2 domain (S-C) = Smad2 MH2 domain (S-C) (Homo sapiens, UniProt Q15796 SEQ:193-477); experiment: EMSA; specificity control; details: tags: GST fusion; label: 32P
Chain of Smad2 MH2 domain (S-C) (Q15796 183-467): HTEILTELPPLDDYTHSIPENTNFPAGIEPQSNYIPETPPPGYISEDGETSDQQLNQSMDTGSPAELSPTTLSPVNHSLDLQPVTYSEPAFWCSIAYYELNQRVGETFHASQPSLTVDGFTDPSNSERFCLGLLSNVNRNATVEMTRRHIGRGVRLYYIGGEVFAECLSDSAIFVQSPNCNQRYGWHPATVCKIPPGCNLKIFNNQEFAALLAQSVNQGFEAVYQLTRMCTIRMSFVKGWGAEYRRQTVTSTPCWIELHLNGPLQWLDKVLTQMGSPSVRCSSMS
Protocol: as §1, §2

[1] = target: T2, hFAST-1 full length (FAST-FL) (Homo sapiens, UniProt O75593 SEQ:1-365); experiment: EMSA; about 0.4 uM protein, 0.5 ng DNA; details: tags: GST N-terminal fusion (pGEX2TK); label: 32P
T2 sequence: T1 sequence
Protocol: as §1, §2

[2] = target: T2, hFAST-1 full length (FAST-FL); experiment: EMSA; 1 ug GST fusion; details: tags: GST N-terminal fusion (pGEX2TK); label: 32P
Protocol: as §1, §2

[3] = target: T2, hFAST-1 full length (FAST-FL); experiment: EMSA; single base substitution in FBE; details: tags: GST N-terminal fusion (pGEX2TK); label: 32P
Protocol: as §1, §2

[4] = target: T2, hFAST-1 full length (FAST-FL); experiment: EMSA; two consensus positions altered; details: tags: GST N-terminal fusion (pGEX2TK); label: 32P
Protocol: as §1, §2

Molecule: AR3-lux reporter (three copies of Mix.2 ARE)
- activity (hFAST-1 (Homo sapiens)): > 30 fold

B1: FBE (dsDNA)
DNA 1: CGGATTGTGTATTGGCTGTAC
DNA 2: GTACAGCCAATACACAATCCG
- binding result (Smad2 MH1 domain (S-N)): no binding
- binding result (Smad2 MH2 domain (S-C)): no binding
- binding result [1]: binds

B2: ARE (Mix.2) (dsDNA)
DNA 1: TATCTGCTGCCCTAAAATGTGTATTCCATGGAAATGTCTGCCCTTCTCTCCGTAC
DNA 2: GTACGGAGAGAAGGGCAGACATTTCCATGGAATACACATTTTAGGGCAGCAGATA
- binding result [2]: binds

B3: ARE mutant (dsDNA)
DNA 1: B2 DNA 1 with G19C
DNA 2: B2 DNA 2 with C37G
- binding result [3]: no binding

B4: FBE* (dsDNA)
DNA 1: CGGATTCTGTATCGGCTGTAC
DNA 2: GTACAGCCGATACAGAATCCG
- binding result [4]: no binding
